Measurements as given in patent publication US7157092B1, “Acyl pseudodipeptides, preparation method and pharmaceutical compositions containing same” (Om Pharma, priority 1998, dated 2007).

System: ovalbumin
Assay: Subcutaneous immunization with ovalbumin antigen: specific serum immunoglobulins (ELISA)
Type: in vivo, BALB/c mice
Conditions: s.c. injections days 0 and 14, ovalbumin 50 μg, adjuvant 50 μg per injection, ± SD
Experimental: To this end, 50 BALB/c mice (females, aged 8 weeks at the beginning of treatment) were divided into 5 groups as follows:
Antigen: An ovalbumin stock solution is prepared at a concentration of 0.5 mg/ml in 0.9% NaCl.
The negative control consists of a 0.9% NaCl solution without antigen.
Antigen-Adjuvant mixture: Adjuvants are allowed to stand for 20 minutes at 37° C. before vortex treatment for 3 minutes. Then the antigen and (0.9%) NaCl are added as specified in the above Table, and the antigen/adjuvant mixture is vortexed briefly before placing it on a rotary stirrer for 15 minutes at room temperature, then the whole mixture is vortexed for 3 minutes.
Immunization regimen: Injections are scheduelled on days 0 and 14. The mixtures stated in the preceeding table are administered by subcutaeous route (75 μl on the side, 150 μl in total per animal). Blood sampling is scheduelled on days 14 and 28 (orbital puncture).
Assay for anti-ovalbumin immunoglobulins: The following serum Immunolglobulins which are specifically directed against ovalbumin are assayed in duplicate by ELISA: IgG1, IgG2a, and IgM. Briefly stated, microtiter plates (NUNC Immunoplate, Roskilde, DK) are incubated (overnight coating) at 40C together with 100 μl ovalbumin (0.5 μg) in bicarbonate buffer pH 9.6). After washing with 0.5% Tween-20 (Merck Hohenbrunn, D), sera are diluted 50-, 200- and 800-fold (diluting solution: phosphate buffered saline (PBS)+1% bovine serum albumin (BSA, Sigma, St. Louis, Mo., USA)+0.02% Tween-20)). 100 μl of each dilute serum sample are added to the wells. Incubation lasts 45 minutes at 37° C.
After a second washing step, IgG1, IgG2a and IgM specifically directed to ovalbumin are incubated for 30 minutes at 37° C. together with 100 μl of anti-IgG1 antibodies (anti-mouse rat antibody)-peroxydase conjugate (Serotec, Oxford, UK), IgG2a-peroxydase conjugate (Pharmingen, San Diego, Calif., USA) and IgM-biotin conjugate (Pharmingen, San Diego, Calif., USA), diluted beforehand in PBS/BSA/Tween buffer (250-, 1000-, 500-fold dilutions, respectively). For IgM, after an extra washing step, a 3rd incubation step is required (30 min. at 37° C.) with a 1:100 dilute solution of streptavidin-peroxydase conjugate (Dako, Glostrup, DK).
After the washing step, 100 μl of a phenylene 1,2-diamine solution (OPD, Merck, Darmstadt, GFR) are added to detect peroxydase-coupled anti-IgG1 and anti-IgG2 secondary antibodies (whereas for IgM, the reagent being used is 3′, 3′, 5′,5′-tetramethylbenzidine (TMB, Sigma, St. Louis, Mo., USA). After a 20 minute incubation period at room temperature, the reaction is stopped by adding 100 μl of 2N H2SO4. Absorbance values are read at 490 nm with a Bio-Rad 3550 model plate reader
Results of each reading at 490 nm are given in arbitrary units (A.U.) per ml. This is achieved by comparing each sample with a standard prepared from different dilutions of a sample pool collected from group B at day 28 (animals injected with ovalbumin alone). As clearly understood by this term, the sample pool diluted 50-fold is at a concentration of 1000 A.U./ml. Individual results are then corrected for the corresponding dilution factor (50, 200, or 800 times). Only the mean values of each group and the standard deviation (SD) are herein reported.

B1: ova: ovalbumin antigen (Fluka Chemie), injected alone (protein, UniProt P01012 2-386, looked up)
Ovalbumin: GSIGAASMEFCFDVFKELKVHHANENIFYCPIAIMSALAMVYLGAKDSTRTQINKVVRFDKLPGFGDSIEAQCGTSVNVHSSLRDILNQITKPNDVYSFSLASRLYAEERYPILPEYLQCVKELYRGGLEPINFQTAADQARELINSWVESQTNGIIRNVLQPSSVDSQTAMVLVNAIVFKGLWEKAFKDEDTQAMPFRVTEQESKPVQMMYQIGLFRVASMASEKMKILELPFASGTMSMLVLLPDEVSGLEQLESIINFEKLTEWTSSNVMEERKIKVYLPRMKMEEKYNLTSVLMAMGITDVFSSSANLSGISSAESLKISQAVHAAHAEINEAGREVVGSAEAGVDAASVSEEFRADHPFLFCIKHIATNAVLFFGRCVSP
**Q.** With B1 as the molecule, how does the “Immunoglobulins specifically raised against ovalbumin of IgG1 subclass” value (Day 14) read?
**A.** 728 ± 589 Arbitrary units/ml

**Q.** And the “Immunoglobulins specifically raised against ovalbumin of IgG2a subclass” value (Day 14)?
**A.** 5201 ± 1880 Arbitrary units/ml

**Q.** And the “Immunoglobulins specifically raised against ovalbumin of IgM subclass” value (Day 14)?
**A.** 19423 ± 13778 Arbitrary units/ml

**Q.** What about the “Immunoglobulins specifically raised against ovalbumin of IgG1 subclass” value (Day 28) of the same molecule?
**A.** 47743 ± 46294 Arbitrary units/ml

**Q.** What about the “Immunoglobulins specifically raised against ovalbumin of IgG2a subclass” value (Day 28) of the same molecule?
**A.** 73162 ± 107954 Arbitrary units/ml

**Q.** What about the “Immunoglobulins specifically raised against ovalbumin of IgM subclass” value (Day 28) of the same molecule?
**A.** 47998 ± 34035 Arbitrary units/ml
